Assay results published in publication PMC5770380.

Biological target: chromatin fibers containing chemically produced H3K9me3 (histone octamers on 12 x 601 array DNA, DA1 or DA2 labelled) (human)

time constant of the increase of compaction (FRET, DA2) after injection of 1 μM HP1α into flow cells with H3K9me3-modified chromatin fibers: 1.1 s
Substance: Heterochromatin protein 1α (HP1α, CBX5) (from UniProt P45973 1-191) (natural protein)
